Patent US20240325562A1, “INTERNALIZING BINDING MOLECULES” (LinXis B.V., priority 2020, published 2024)

Experiments:
IGF2R [1] = target: T1, IGF2R (Rattus norvegicus, UniProt G3V824); test: Staining of rat tissue cryo-sections for IGF2R; settings: 50 nM, overnight 4° C.
T1 construct: from tissue; host or cells: cryo-sections of rat tissues (liver, kidney, spleen, heart, ileum, brain); Sprague-Dawley BDL and SHAM rats
Protocol: (§1) To evaluate whether F11E8-ABD bound to IGF2R as (over-) expressed in the cirrhotic liver, various cryo-sections of tissues (liver, kidney, spleen, heart, ileum, brain) obtained from both healthy (SHAM) and cirrhotic (BDL) rats (preparation procedure as outlined in example 15) were stained with 13F11-13E8-ABD conjugated to Alexa Fluor 647 (13F11-13E8-ABD-A647, conjugation method as described in example 10.2.). Staining was performed with 50 nM 13F11-13E8-ABD-AF647 during overnight incubation at 4° C. Subsequently, the sections were washed and stained with DAPI, mounted with mowiol mounting medium (Merck) and imaged on a Zeiss LSM700 laser scanning confocal microscope with a 20× objective. […] In the tissues other than the liver, no upregulation of IGF2R was observed.

[2] = tested on: BDL rats (portal hypertension); test: Portal pressure and mean arterial pressure in BDL and SHAM rats; assay type: in vivo, Sprague-Dawley rats; settings: 5 mg/kg i.v.
Excerpt: To evaluate in vivo functionality, 13F11-13E8-ABD was conjugated to a Y27632-maleimide modified functional moiety (1e) (the test conjugate) as outlined in example 10.2. To provide a comparator, a similar amount of 13F11-13E8-ABD was conjugated to N-ethylmaleimide in a parallel and similar preparation (the mock conjugate).
To establish animals displaying portal hypertension (Klein et al, Fibrosis: Methods and Protocols. Methods in Molecular Biology. 2017 (1627): 91-122.), Sprague-Dawley rats were subjected to bile duct ligation (BDL) through median laparotomy under ketamine/xylazine-induced anaesthesia i.p. (BDL rats). To provide healthy controls, a second cohort of rats was subjected to the same surgical procedure except for actual ligation of the bile duct (SHAM rats). Surgery was followed-up with pain control medication (carprofen s.c.). Approximately five weeks after surgery, ketamine/xylazine anesthetized rats were subjected to median laparotomy, after which one catheter was inserted through an ileocecal vein to the portal vein, and one catheter was inserted into the femoral artery. The catheters were connected to pressure recording equipment, for assessment of portal pressure and mean arterial pressure, respectively.
(§2) After catheterization and hemodynamic stabilization, rats were dosed with 5 mg/kg test conjugate or mock conjugate i.v. through the lateral tail vein and pressures were monitored continuously (example 15.1.). One hour after dosing, animals were sacrificed after which tissues were isolated for ex vivo analysis (example 15.2.).

IGF2R [3] = target: T1, IGF2R; test: In situ detection of infused test conjugate in liver sections; assay type: in vivo; settings: for detection of conjugate in liver: one hour after 5 mg/kg i.v., anti-VHH antiserum
Protocol: as §2
After isolation, livers obtained from test conjugate-infused BDL and SHAM rats were fixated with paraformaldehyde, soaked in 30% (w/v) sucrose in PBS, and sectioned using cryo-microtome.
To detect the test conjugate in situ, tissue sections were stained with a rabbit polyclonal anti-VHH antiserum recognizing the 13F11-13E8 moiety of the conjugate, followed by an anti-rabbit antibody conjugated to the fluorophore Alexa-488 for visualization by confocal fluorescence microscopy (cf. example 14).

hIGF2R-ECD = target: T2, hIGF2R-ECD (Homo sapiens, UniProt P11717); test: Competition assay with 13F11-A647 as reporter VHH on immobilized hIGF2R-ECD; assay type: binding; settings: 10 nM 13F11-A647, 250 nM unconjugated competitor VHH
T2 construct: immobilized recombinant human extracellular domain of IGF2R (hIGF2R-ECD) was used
Protocol: With the term “compete” is meant that in a competition assay, such as for instance described in Example 6 of the present invention, the addition of a binding molecule induces a significant decrease in binding of a given VHH, i.e., the VHH to which the competing is determined. “Significant” in this respect is preferably a decrease of >5%, preferably >10% when 250 nM of a binding molecule is added to 10 nM of a fluorescence labelled VHH in an ELISA. […] The same test conditions and threshold apply to a binding molecule directed to PDGFRB when determining whether a binding molecule competes with a given VHH.
Biparatopic VHH constructs contain two VHH which bind to a different epitope, i.e. which are non-competitive binders. To identify (a) pair(s) of non-competitive binders, competition assays were performed. In the example shown, an Alexa fluor-conjugate of the high affine VHH 13F11 was used as the reporter VHH (13F11-A647, see example 10.2). In the assay, a non-saturating amount (10 nM) of 13F11-A647 was incubated with immobilized hIGF2R-ECD in the presence or absence of 250 nM unconjugated competitor VHH to allow competition to take place.

[4] = tested on: A549 cells that endogenously express hIGF2R; test: Internalization by fluorescence microscopy after acid wash, A549 cells; assay type: cell-based, human; settings: 25 nM Alexa fluor 647 conjugate
Protocol: (§3) First, Alexa fluor 647-conjugates of the VHH 13F11 and the biparatopic VHH construct […] were added to A549 cells that endogenously express hIGF2R (FIG. 16A), NIH 3T3 2.2 cells that were transiently transfected with hIGF2R (FIG. 16B), or mock transfected NIH 3T3 2.2 cells (as a negative control). For this, the cells were incubated with 25 nM of the VHH or the VHH construct. Before fluorescent microscopy readout, to ensure that only signal of internalized VHH or mouse anti-IGF2R was present, an acid wash (0.2M glycine-HCl, 150 mM NaCl, pH 2.3) was used to remove VHH or mouse anti-IGF2R bound to the target receptors on the cell surface. The efficiency of the acid wash procedure was verified by incubating the hIGF2R transfected NIH 3T3 2.2 cells with 13F11-13E8-A647 on ice and subsequently treating these cells with an acid wash while remaining on ice to prevent internalization (FIG. 16D). […] Summarizing, biparatopic 13F11-13E8 clearly internalizes in cells expressing hIGF2R on the cell surface.

[5] = tested on: NIH 3T3 2.2 cells that were transiently transfected with hIGF2R; test: Internalization by fluorescence microscopy after acid wash, hIGF2R-transfected NIH 3T3 2.2 cells; assay type: cell-based, human; settings: 25 nM Alexa fluor 647 conjugate
Protocol: as §3

[6] = tested on: mock transfected NIH 3T3 2.2 cells; test: Internalization by fluorescence microscopy after acid wash, mock transfected cells; assay type: cell-based; settings: 25 nM Alexa fluor 647 conjugate, negative control cells
Protocol: as §3

PDGFRB = target: T3, PDGFRB (Rattus norvegicus, UniProt Q05030); test: Staining of rat tissue cryo-sections for PDGFRB; settings: 50 nM, overnight 4° C.
T3 construct: from tissue; host or cells: cryo-sections of rat tissues (liver, kidney, spleen, heart, ileum, brain) of BDL and SHAM rats
Protocol: as §1, with “SP02-SP26-ABD” for “F11E8-ABD”, “PDGFRB” for “IGF2R”, “SP02-SP26-ABD” for “13F11-13E8-ABD”, “(SP02-SP26-ABD-A647,” for “(13F11-13E8-ABD-A647,”, “SP02-SP26-ABD-AF647” for “13F11-13E8-ABD-AF647”, “(Merck),” for “(Merck)”

[7] = BDL rats, monitored for one hour

T1 sequence (G3V824 36-2481): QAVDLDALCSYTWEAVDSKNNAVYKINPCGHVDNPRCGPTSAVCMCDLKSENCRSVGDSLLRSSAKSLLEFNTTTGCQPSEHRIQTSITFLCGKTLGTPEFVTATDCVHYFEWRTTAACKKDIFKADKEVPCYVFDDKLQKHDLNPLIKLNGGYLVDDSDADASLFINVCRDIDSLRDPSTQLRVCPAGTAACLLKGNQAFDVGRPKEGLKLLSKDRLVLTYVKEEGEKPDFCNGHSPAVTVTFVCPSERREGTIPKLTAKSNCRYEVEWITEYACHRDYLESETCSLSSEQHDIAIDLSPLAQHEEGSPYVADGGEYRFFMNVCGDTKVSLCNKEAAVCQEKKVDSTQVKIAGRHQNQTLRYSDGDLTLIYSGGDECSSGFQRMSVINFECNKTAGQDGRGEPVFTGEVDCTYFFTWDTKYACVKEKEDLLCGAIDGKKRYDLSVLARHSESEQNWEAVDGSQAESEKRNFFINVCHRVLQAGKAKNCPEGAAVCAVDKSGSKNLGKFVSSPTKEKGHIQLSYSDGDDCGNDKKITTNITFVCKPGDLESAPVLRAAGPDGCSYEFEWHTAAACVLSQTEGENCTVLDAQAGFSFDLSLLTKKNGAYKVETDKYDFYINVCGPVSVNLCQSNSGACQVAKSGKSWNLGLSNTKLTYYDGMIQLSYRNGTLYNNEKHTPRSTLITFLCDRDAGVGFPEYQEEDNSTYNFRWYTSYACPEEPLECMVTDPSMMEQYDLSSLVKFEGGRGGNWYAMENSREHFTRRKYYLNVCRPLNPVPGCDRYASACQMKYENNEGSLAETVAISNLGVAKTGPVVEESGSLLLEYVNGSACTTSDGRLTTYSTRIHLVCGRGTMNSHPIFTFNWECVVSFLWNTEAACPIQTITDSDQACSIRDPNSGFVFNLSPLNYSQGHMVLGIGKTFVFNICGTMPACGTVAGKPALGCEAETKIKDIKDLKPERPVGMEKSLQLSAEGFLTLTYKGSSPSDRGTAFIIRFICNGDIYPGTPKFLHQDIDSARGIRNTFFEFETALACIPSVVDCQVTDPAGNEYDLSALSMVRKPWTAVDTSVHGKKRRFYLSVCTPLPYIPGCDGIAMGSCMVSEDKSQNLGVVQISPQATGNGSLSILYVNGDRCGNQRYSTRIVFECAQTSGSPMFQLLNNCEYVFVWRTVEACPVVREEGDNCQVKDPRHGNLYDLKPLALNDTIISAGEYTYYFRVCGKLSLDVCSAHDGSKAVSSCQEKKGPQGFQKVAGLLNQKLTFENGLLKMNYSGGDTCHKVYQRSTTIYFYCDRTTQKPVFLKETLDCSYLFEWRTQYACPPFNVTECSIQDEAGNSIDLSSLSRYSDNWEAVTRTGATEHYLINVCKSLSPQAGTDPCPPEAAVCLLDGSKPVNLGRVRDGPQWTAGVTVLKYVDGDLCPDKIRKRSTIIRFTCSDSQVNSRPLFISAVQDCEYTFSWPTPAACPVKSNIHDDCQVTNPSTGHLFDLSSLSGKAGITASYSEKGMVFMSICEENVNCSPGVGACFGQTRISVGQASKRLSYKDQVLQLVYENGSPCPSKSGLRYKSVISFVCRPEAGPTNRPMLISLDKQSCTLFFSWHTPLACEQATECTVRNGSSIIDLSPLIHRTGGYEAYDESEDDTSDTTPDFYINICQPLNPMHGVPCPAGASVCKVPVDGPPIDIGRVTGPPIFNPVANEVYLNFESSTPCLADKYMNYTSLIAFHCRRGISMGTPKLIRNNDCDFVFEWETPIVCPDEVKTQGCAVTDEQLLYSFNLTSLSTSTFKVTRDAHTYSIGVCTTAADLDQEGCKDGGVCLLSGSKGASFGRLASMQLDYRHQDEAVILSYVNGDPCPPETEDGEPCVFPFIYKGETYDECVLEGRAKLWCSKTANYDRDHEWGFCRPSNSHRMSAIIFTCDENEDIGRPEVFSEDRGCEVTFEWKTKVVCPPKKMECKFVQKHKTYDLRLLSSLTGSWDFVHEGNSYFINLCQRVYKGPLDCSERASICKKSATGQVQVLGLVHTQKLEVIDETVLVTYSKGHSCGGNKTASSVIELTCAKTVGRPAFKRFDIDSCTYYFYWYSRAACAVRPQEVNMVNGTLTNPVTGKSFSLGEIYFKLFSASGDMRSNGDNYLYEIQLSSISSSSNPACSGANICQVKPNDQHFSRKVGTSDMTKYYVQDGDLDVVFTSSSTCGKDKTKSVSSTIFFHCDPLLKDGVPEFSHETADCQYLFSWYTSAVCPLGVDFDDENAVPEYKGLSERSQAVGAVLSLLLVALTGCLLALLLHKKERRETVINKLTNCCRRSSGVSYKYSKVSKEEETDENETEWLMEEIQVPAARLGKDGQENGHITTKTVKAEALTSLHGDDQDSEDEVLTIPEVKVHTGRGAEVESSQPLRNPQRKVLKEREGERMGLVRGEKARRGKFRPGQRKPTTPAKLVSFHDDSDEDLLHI
T3 sequence (Q05030 32-1097): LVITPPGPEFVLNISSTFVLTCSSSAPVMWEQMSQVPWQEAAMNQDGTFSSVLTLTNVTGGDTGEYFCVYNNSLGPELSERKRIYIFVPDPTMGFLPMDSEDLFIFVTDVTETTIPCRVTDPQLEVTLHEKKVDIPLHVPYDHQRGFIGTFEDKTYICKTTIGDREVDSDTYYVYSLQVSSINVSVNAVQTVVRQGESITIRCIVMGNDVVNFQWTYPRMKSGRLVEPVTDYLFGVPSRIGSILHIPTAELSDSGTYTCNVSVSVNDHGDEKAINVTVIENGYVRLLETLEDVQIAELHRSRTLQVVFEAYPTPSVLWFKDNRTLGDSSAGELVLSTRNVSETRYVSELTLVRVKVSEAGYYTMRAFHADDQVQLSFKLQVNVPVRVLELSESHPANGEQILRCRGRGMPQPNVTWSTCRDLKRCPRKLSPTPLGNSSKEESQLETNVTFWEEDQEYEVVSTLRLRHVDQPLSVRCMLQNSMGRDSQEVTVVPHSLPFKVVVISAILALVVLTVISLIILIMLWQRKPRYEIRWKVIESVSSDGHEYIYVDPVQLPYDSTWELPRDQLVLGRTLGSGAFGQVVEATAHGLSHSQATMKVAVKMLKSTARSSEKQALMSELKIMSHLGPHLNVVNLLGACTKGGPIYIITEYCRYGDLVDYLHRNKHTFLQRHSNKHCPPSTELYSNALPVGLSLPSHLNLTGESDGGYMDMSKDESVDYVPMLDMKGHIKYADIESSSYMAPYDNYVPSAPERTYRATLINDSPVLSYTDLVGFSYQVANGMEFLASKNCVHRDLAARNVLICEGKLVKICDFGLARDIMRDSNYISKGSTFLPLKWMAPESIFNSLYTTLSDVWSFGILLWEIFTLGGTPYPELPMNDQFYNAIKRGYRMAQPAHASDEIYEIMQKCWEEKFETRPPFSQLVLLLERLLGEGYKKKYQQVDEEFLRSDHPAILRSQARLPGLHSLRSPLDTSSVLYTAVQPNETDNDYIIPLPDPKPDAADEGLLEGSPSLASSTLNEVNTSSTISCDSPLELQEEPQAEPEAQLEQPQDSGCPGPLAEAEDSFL

B1: 13F11-13E8-ABD-AF647: 13F11-13E8-ABD conjugated to Alexa Fluor 647 (conjugate)
chain: EVQLVESGGRLVQPGDSLRLSCAASGRTFSDNAMGWFRQAPGKERRFVAGISWAGGSTYYSDSVKGRFTISRDNAKNTVYLQMNSLKPEDTAVYYCAAGLRAWVQRMPKDYNYWGQGTQVTVSSGGGGSGGGGSGGGGSEVQLVESGGGLVQAGGSLRLSCAASRSISPMGWYRQAPGKQRELVAIMPSSGPPIYADSVQGRFTISRDNAKNTVYLQMNSLKPEDTAVYYCNVGGGYWGQGTQVTVSS
modifications: left off: large carriers; small tags and cut ends
staining of cirrhotic (BDL) rat liver (IGF2R [1]): strongly stains activated fibroblasts
staining of normal (SHAM) rat liver (IGF2R [1]): only background signal was detected

B2: test conjugate: 13F11-13E8-ABD conjugated to a Y27632-maleimide modified functional moiety (1e) (conjugate)
chain: EVQLVESGGRLVQPGDSLRLSCAASGRTFSDNAMGWFRQAPGKERRFVAGISWAGGSTYYSDSVKGRFTISRDNAKNTVYLQMNSLKPEDTAVYYCAAGLRAWVQRMPKDYNYWGQGTQVTVSSGGGGSGGGGSGGGGSEVQLVESGGGLVQAGGSLRLSCAASRSISPMGWYRQAPGKQRELVAIMPSSGPPIYADSVQGRFTISRDNAKNTVYLQMNSLKPEDTAVYYCNVGGGYWGQGTQVTVSS
modifications: non-natural residues; left off: large carriers; small tags and cut ends
mean arterial pressure (MAP) [2, 7]: remained constant
portal pressure (PP) [2, 7]: gradual decrease of portal pressure
portal or arterial pressure ([2]; SHAM rats): neither the test conjugate nor the mock conjugate affected portal or arterial pressure
detection of conjugate in liver (IGF2R [3]; BDL rats): detected in the liver of BDL rats
distribution in liver versus (tissue) distribution of IGF2R (IGF2R [3]; BDL rats, second staining with 13F11-13E8-A647): overlapped
detection of conjugate in liver (IGF2R [3]; SHAM rats): not in the liver of SHAM rats

B3: 13F11: VHH single domain antibody targeting IGF2R, SEQ ID NO: 273 (protein)
VHH: EVQLVESGGRLVQPGDSLRLSCAASGRTFSDNAMGWFRQAPGKERRFVAGISWAGGSTYYSDSVKGRFTISRDNAKNTVYLQMNSLKPEDTAVYYCAAGLRAWVQRMPKDYNYWGQGTQVTVSS
competition with reporter VHH 13F11-A647 (hIGF2R-ECD): competed with 13F11-A647
internalization [4]: no internalization was observed
internalization [5]: internalized
internalization [6]: no internalization was observed

B4: SP02-SP26-ABD-AF647: SP02-SP26-ABD conjugated to Alexa Fluor 647 (conjugate)
chain: EVQLVESGGGLVQAGGSLRLSCAASESISSIEQMGWFRQAPGKQRALVAINTYGGRTVYTNSVEGRFTMSRDSAKNMVYLQMTSLEPEDTAVYYCYAQTTAWRGGVWGQGTQVTVSSGGGGSGGGGSGGGGSEVQLVESGGGLVQAGGSLRLSCAASGRSFSSSVMGWFRQTPGKEREFVAATRWTAASTHYADSVKGRFTISRDHAENAVFLQMNSLKPEDTAVYYCAAGNYLDTAQYRYNYWGQGTQVTVSS
modifications: left off: large carriers; small tags and cut ends
staining of cirrhotic (BDL) rat liver (PDGFRB): strongly stains activated fibroblasts
staining of normal (SHAM) rat liver (PDGFRB): only background signal was detected
